Patent US20220406376A1 (MacroGenics, published 2022)
Residue numbers refer to the chain shown, from its start. Names may count otherwise.

Assays:
[1] = target: T1, CD137 on the surface of cells (activated human T cells; engineered CHO cells) (human, UniProt Q07011 24-255); experiment: flow cytometry on activated pan T cells gated CD8+ (donor D43867), anti-hFc APC MFI
T1 construct: whole, on cells; also called human CD137; cell surface expressed CD137
Description: (§1) Three antibodies were selected for further study. For such evaluations, purified pan T-cells (see above) were stimulated with anti-CD3/CD28 beads (cells:beads=1:1) for 72 hours in the presence of IL-2 (100 U/mL). 100 μL of activated T cells (1.0×10⁶ cells/mL) and 100 μL of serially diluted (5- or 10-fold dilutions) test article (antibody or bispecific diabody) was added to each well of microtiter assay plate(s), mixed and incubated at RT for 45 min. The cells were washed with FACS Buffer and secondary antibody (anti-human-Fc region-APC) was then added to each well; mixed and incubated at RT for 30 min. Cells were then washed FACS Buffer and T cell surface marker antibodies (anti-CD4 labeled with V510, and anti-CD8 labeled with FITC) were then added to each well; mixed and incubated at RT for 30 min. Cells were washed and resuspended in 100 μL FACS Buffer and analyzed by flow cytometry (BD LSR Fortessa or FACSCanto 11) for cell event collection. Data analysis were performed via FloJo v10.

[2] = target: T1, CD137 on the surface of cells …; experiment: flow cytometry on activated pan T cells gated CD4+ (donor D43867), anti-hFc APC MFI
Description: as §1

[3] = target: T2, extracellular portion of human CD137 fused to a histidine-containing peptide (human, UniProt Q07011 24-186); experiment: SPR (BIACORE), against chCD137 MAB-4
T2 construct: extracellular domain; also called huCD137; His-tagged soluble human CD137
Description: (§2) Thus, an extracellular portion of human CD137 fused to a histidine-containing peptide (“huCD137”) was passed over a surface coated with immobilized antibody. Briefly, each test molecule was captured onto an F(ab)₂ goat-anti-human Fc-coated surface and then incubated in the presence of different concentrations (25 nM and 100 nM) of huCD137. The kinetics of binding were determined via BIACORE® analysis binding (normalized 1:1 Langmuir binding model).

[4] = target: T2, extracellular portion of human CD137 …; experiment: SPR (BIACORE); antibody captured on anti-human Fc; huCD137 25 and 100 nM; 1:1 Langmuir
Description: as §2

[5] = target: T2, extracellular portion of human CD137 …; experiment: Attana Cell A200 QCM; antibody captured by anti-human IgG Fc; soluble human CD137-His; grade relative to (1B.3); row with VL12
[6] = target: T2, extracellular portion of human CD137 …; experiment: SPR (BIACORE), against chCD137 MAB-3
Description: as §2

[7] = target: T3, extracellular portion of human HER2 fused to a histidine-containing peptide (human, UniProt P04626 23-652); experiment: SPR (BIACORE), essentially as for Table 8
T3 construct: extracellular domain; also called huHER2; Human HER2/neu
Text: The humanized variants were selected to have improved binding affinity as compared to the parental murine antibody and as described may be further engineered to eliminate sequence liabilities (e.g., isomerization, deamidation sites) as described above. The binding affinity of several combinations of humanized VH and VL domains was examined by BIACORE®. Thus, an extracellular portion of human HER2 fused to a histidine-containing peptide (“huHER2”) was passed over a surface coated with immobilized antibody. Briefly, each test molecule was captured onto an F(ab)₂ goat-anti-human Fc-coated surface and then incubated in the presence of different concentrations (6.25 nM-50 nM) of huHER2. The kinetics of binding were determined via BIACORE® analysis binding (normalized 1:1 Langmuir binding model).
In a separate study, the binding kinetics of the CD137×TA bispecific diabody, DART-B (described above), were determined for binding to human HER2 and cynomolgus monkey HER2, essentially as described above.

[8] = target: T1, CD137 on the surface of cells …; experiment: flow cytometry on CD137-expressing CHO cells (CHO/137), anti-hFc APC MFI
[9] = target: T4, HER2/neu on the surface of target cells (N87, JIMT-1, MCF-7, MDA-MB231) (UniProt P04626 23-1255, limits assumed); experiment: flow cytometry on N87 gastric cancer cells, anti-hFc APC MFI
T4 construct: whole, on cells

[10] = target: T4, HER2/neu on the surface of target cells …; experiment: flow cytometry on N87 cells, anti-hFc APC MFI
Description: (§3) CD137×TA Binding Molecules, DART-B, DART-D, DART-G and the control molecules DART-3 and DART-6 were additionally evaluated for their ability to bind to HER2/neu expressed on N87 cells (FIG. 13A) and JIMT-1 cells (FIG. 13B). For such evaluation, 100 μL of HER2/neu expressing target cells (1.0×1⁰⁶ cells/mL) and 100 μL of serially diluted (5- or 10-fold dilutions) test article (bispecific diabody) were added to each well of microtiter assay plate(s), mixed and incubated at RT for 45 min. The cells were washed with FACS Buffer and secondary antibody (anti-human-Fc region-APC) was then added to each well; mixed and incubated at RT for 30 min. Cells were washed and resuspended in 100 μL FACS Buffer and analyzed by flow cytometry (BD LSR Fortessa or FACSCanto 11) for cell event collection. Data analysis were performed via FloJo v10.

[11] = target: T4, HER2/neu on the surface of target cells …; experiment: flow cytometry on JIMT-1 cells, anti-hFc APC MFI
Description: as §3

[12] = target: T1, CD137 on the surface of cells …; experiment: flow cytometry on activated CD8+ T cells (CD8 FITC), anti-hFc APC MFI
[13] = target: T1, CD137 on the surface of cells …; experiment: flow cytometry on activated pan T cells gated CD8, anti-hFc APC MFI

T1 sequence (Q07011 24-255, change not shown): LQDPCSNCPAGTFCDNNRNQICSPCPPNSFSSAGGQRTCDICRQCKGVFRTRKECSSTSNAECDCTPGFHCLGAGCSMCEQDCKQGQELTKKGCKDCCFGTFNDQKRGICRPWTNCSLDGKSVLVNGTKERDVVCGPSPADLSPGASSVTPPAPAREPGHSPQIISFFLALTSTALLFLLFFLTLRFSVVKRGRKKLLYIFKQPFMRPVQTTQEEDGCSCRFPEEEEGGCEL

B1: hCD137 MAB-3 (1E.15) (antibody, V domains shown)
VH: QVQLVQSGAEVKKPGASVKVSCKASGYTFTSYWINWVRQAPGQGLEWIGNIYPSDSYTNYNQKFKDKATITADKSTSTAYMELSSLRSEDTAVYYCTRDYGSAYSMSTWGQGTTVTVSS
VL: DIQMTQSPSSLSASVGDRVTITCQASQDISNYLNWYQQKPDKTVKLLIYYTGRARSGVPSRFSGSGSGTDFTFTISSLQPEDIATYFCQQGDTLPYTFGQGTKLEIK
- EC50 (read off the curve) [1]: ~0.005 mg/L
- EC50 (read off the curve) [2]: ~0.006 mg/L

B2: hCD137 MAB-4 (1.1) (antibody, V domains shown)
VH: QVQLVQSGAEVKKPGASVKVSCKASGYTFTSYWINWVRQAPGQGLEWMGNIYPSDSYTNYDQKFKDRVTMTRDTSTSTVYMELSSLRSEDTAVYYCTKSGEYGKIGYYAMDYWGQGTTVTVSS
VL: B1 VL with Q24R, G52S, A54L, R55H, F71Y, F73L, D92N
notes: also called chCD137 MAB-4 (1.1)
- fold decrease in binding affinity relative to the murine antibodies [3]: ~2 fold
- Kd [4]: 0.0162 µM
- koff [4]: 0.0021 s⁻¹
- kon [4]: 130000 M⁻¹ s⁻¹

B3: hCD137 MAB-3 VH1B with VL12 (I48A/S52T) (antibody, V domains shown)
VH: B1 VH with R38K
VL: B1 VL with Q24R, A25P, I48A, G52T, A54L
- binding result [5]: binds

B4: hCD137 MAB-3 (1.3) (antibody, V domains shown)
VH: B1 VH with R38K, A103S, M106F, S107D, T108Y
VL: B1 VL with Q24R, A25P, G52S, A54L
notes: also called chCD137 MAB-3 (1.3)
- fold decrease in binding affinity relative to the murine antibodies [6]: ~2 fold
- Kd [4]: 0.05 µM
- koff [4]: 0.033 s⁻¹
- kon [4]: 660000 M⁻¹ s⁻¹

B5: hCD137 MAB-3 (1G.15) (antibody, V domains shown)
VH: B1 VH with I48A
VL: B1 VL
- EC50 (read off the curve) [1]: ~0.008 mg/L
- EC50 (read off the curve) [2]: ~0.01 mg/L

B6: hCD137 MAB-3 (1.1) (antibody, V domains shown)
VH: B1 VH with R38K, A103S, M106F, S107D, T108Y
VL: B1 VL with Q24R, A25P, K42G, G52S, A54L
notes: also called chCD137 MAB-3 (1.1)
- fold decrease in binding affinity relative to the murine antibodies [6]: ~2 fold
- Kd [4]: 0.046 µM
- koff [4]: 0.031 s⁻¹
- kon [4]: 670000 M⁻¹ s⁻¹

B7: hCD137 MAB-3 (1.2) (antibody, V domains shown)
VH: B1 VH with R38K, A103S, M106F, S107D, T108Y
VL: B1 VL with Q24R, A25P, D41G, K42G, G52S, A54L
notes: also called chCD137 MAB-3 (1.2)
- fold decrease in binding affinity relative to the murine antibodies [6]: ~2 fold
- Kd [4]: 0.049 µM
- koff [4]: 0.03 s⁻¹
- kon [4]: 610000 M⁻¹ s⁻¹

B8: hCD137 MAB-4 (1.2) (antibody, V domains shown)
VH: B2 VH
VL: B1 VL with Q24R, G52S, A54L, R55H, F71Y, F73L, F87Y, D92N
notes: also called chCD137 MAB-4 (1.2)
- fold decrease in binding affinity relative to the murine antibodies [3]: ~2 fold
- Kd [4]: 0.0136 µM
- koff [4]: 0.0019 s⁻¹
- kon [4]: 140000 M⁻¹ s⁻¹

B9: DART-B (bispecific antibody)
chain 1: not shown
chain 2: DIQMTQSPSSLSASVGDRVTITCRPSQDISNYLNWYQQKPDKTVKLLIYYTSRLRSGVPSRFSGSGSGTDFTFTISSLQPEDIATYFCQQGDTLPYTFGQGTKLEIKGGGSGGGGQVQLVQSGAEVKKPGASVKVSCKASGYTFTNYGMNWVRQAPGQGLEWMGWINTNIGEPTYTEEFKGRVTMTRDTSISTAYMELSRLRSDDTAVYYCARDDGYGNRVSYWGQGTLVTVSSGGCGGGKVAACKEKVAALKEKVAALKEKVAALKE
- Kd [7]: 0.00038 µM
- koff [7]: 0.000182 s⁻¹
- kon [7]: 480000 M⁻¹ s⁻¹
- EC50 (read off the curve) [8]: ~0.01 mg/L
- EC50 (read off the curve) [9]: ~0.0005 µM
- EC50 (read off the curve) [10]: ~0.06 mg/L
- EC50 (read off the curve) [11]: ~0.03 mg/L
- EC50 (read off the curve) [12]: ~0.02 mg/L
- EC50 (read off the curve) [13]: ~0.0001 µM
